# According to patent publication US20240269235A1 (Gilead, published 2024):
# Changes are numbered by the printed parent chain.
# T1: trimeric murine IL-2 receptor (IL-2Rα, IL-2Rβ, and IL-2Rγ) on CTLL-2 cells (murine, UniProt P01590 22-268; P16297 27-539; P34902 23-369)
# T1 sequence (looked up) 1: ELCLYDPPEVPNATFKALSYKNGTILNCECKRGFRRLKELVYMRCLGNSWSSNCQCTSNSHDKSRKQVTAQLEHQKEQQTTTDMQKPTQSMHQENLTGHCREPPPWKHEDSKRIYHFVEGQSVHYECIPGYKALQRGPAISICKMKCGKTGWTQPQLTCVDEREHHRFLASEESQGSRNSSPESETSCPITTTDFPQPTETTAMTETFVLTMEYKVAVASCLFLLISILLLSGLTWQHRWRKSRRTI
# T1 sequence (looked up) 2: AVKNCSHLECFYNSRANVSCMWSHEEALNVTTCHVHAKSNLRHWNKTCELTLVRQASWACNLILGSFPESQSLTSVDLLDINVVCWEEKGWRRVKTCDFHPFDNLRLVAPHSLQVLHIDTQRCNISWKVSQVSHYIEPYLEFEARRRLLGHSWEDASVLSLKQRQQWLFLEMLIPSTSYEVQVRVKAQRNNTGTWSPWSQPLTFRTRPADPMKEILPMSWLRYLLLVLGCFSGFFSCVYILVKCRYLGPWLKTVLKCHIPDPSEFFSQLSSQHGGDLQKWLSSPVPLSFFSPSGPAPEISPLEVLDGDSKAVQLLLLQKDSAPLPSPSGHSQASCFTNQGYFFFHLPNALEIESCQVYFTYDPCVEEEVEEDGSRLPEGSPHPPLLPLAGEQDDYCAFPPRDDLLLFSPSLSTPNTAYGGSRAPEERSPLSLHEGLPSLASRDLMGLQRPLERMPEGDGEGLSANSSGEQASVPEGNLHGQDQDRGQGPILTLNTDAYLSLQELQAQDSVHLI
# T1 sequence (looked up) 3: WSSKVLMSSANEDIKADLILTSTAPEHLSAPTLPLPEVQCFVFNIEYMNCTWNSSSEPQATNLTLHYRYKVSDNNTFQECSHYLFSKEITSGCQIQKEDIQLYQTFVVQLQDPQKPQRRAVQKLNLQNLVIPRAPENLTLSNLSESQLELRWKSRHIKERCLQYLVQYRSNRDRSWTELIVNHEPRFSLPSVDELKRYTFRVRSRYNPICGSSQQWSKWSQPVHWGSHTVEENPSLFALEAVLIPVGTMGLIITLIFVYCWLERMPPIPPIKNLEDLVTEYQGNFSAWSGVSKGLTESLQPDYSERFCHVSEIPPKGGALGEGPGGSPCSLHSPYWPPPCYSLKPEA
# T2: IL-2Rαβγ on KHYG-1 cells (human NK leukemia cell line that expresses IL-2Rα, β, and γ) (human, UniProt P01589 22-272; P14784 27-551; P31785 23-369)
# T2 sequence (looked up) 1: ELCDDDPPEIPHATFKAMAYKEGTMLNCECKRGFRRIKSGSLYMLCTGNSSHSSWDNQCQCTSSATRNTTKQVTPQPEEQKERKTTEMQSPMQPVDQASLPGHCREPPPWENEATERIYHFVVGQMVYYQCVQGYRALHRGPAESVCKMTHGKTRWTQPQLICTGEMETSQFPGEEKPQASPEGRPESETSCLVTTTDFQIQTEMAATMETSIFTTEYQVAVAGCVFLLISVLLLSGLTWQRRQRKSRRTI
# T2 sequence (looked up) 2: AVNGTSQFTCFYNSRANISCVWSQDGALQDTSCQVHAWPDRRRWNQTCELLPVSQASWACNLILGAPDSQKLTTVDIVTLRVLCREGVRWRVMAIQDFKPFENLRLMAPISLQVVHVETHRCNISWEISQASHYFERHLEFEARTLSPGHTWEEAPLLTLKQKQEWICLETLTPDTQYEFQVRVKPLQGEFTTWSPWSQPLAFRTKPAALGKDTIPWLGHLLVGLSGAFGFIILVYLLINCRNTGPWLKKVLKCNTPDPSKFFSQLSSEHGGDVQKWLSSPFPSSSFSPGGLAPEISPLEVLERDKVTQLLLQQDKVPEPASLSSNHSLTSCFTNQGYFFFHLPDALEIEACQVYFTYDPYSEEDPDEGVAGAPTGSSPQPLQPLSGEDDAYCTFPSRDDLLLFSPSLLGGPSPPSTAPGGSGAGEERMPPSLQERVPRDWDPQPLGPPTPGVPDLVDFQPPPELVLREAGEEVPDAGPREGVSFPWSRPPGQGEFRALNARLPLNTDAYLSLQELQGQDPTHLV
# T2 sequence (looked up) 3: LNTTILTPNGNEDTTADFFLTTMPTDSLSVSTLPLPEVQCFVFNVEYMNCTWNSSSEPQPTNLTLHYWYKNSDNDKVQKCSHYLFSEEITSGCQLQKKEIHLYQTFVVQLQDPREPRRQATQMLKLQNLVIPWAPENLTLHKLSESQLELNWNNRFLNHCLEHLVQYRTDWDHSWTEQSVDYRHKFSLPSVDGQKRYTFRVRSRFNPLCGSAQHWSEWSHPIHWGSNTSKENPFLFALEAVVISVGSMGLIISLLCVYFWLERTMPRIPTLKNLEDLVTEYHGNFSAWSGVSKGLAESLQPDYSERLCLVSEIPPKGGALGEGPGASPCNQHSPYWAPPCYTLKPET
# T3: IL-2Rα (recombinant IL-2 receptor α, R&D Systems Cat #: 223-2A/CF), biotinylated (human, UniProt P01589 22-213, limits assumed, biotinylated using sulfo-NHS-LC-LC-Biotin)
# T3 construct: Bought reagent; also used here as the IL-2Rα partner of the in-silico analysis of PDB 2B5I (another construct); also called IL-2RA; CD25
# T3 sequence (looked up): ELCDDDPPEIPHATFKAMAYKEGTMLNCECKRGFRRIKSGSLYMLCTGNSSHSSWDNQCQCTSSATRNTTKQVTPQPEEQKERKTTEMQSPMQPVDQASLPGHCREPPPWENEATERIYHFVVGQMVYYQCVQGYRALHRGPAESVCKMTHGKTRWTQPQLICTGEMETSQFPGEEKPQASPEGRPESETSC
# B1: Fc-IL-2v heterodimer 96.46 (hIL-2v_Δ1-5_Y45G_E61A_C125S) (Fc fusion)
# chain 1: ESKYGPPCPPCPAPEAAGGPSVFLFPPKPKDTLMISRTPEVTCVVVDVSQEDPEVQFNWYVDGVEVHNAKTKPREEQFNSTYRVVSVLTVLHQDWLNGKEYKCKVSNKGLPSSIEKTISKAKGQPREPQVYTLPPSQEEMTKNQVSLWCLVKGFYPSDIAVEWESNGQPENNYKTTPPVLDSDGSFFLYSRLTVDKSRWQEGNVFSCSVMHEALHNHYTQKSLSLSLGGGGGSGGGGSGGGGSGGGGSSTKKTQLQLEHLLLDLQMILNGINNYKNPKLTRMLTFKFGMPKKATELKHLQCLEAELKPLEEVLNLAQSKNFHLRPRDLISNINVIVLELKGSETTFMCEYADETATIVEFLNRWITFSQSIISTLT
# chain 2: ESKYGPPCPPCPAPEAAGGPSVFLFPPKPKDTLMISRTPEVTCVVVDVSQEDPEVQFNWYVDGVEVHNAKTKPREEQFNSTYRVVSVLTVLHQDWLNGKEYKCKVSNKGLPSSIEKTISKAKGQPREPQVYTLPPSQEEMTKNQVSLSCAVKGFYPSDIAVEWESNGQPENNYKTTPPVLDSDGSFFLVSRLTVDKSRWQEGNVFSCSVMHEALHNRFTQKSLSLSLGK
# notes: hIgG4 knob-in-hole Fc heterodimer, one IL-2v on the knob chain
# B2: Fc-IL-2v heterodimer 98.46 (hIL-2v_Δ1-5_R38G_Y45G_C125S) (Fc fusion)
# chain 1: B1 chain 1 with R281G, A304E
# chain 2: B1 chain 2
# notes: as for B1
# B3: Fc-IL-2v heterodimer 105.46 (hIL-2v_Δ1-5_F42A_Y45A_L72G_C125S) (Fc fusion)
# chain 1: B1 chain 1 with F285A, G288A, A304E, L315G
# chain 2: B1 chain 2
# notes: as for B1
# B4: Fc-IL-2v heterodimer 108.46 (hIL-2v_Δ1-5_F42A_Y45G_E62A_C125S) (Fc fusion)
# chain 1: B1 chain 1 with F285A, A304E, E305A
# chain 2: B1 chain 2
# notes: as for B1
# B5: Fc-IL-2v heterodimer 99.46 (hIL-2v_Δ1-5_R38G_E61A_C125S) (Fc fusion)
# chain 1: B1 chain 1 with R281G, G288Y
# chain 2: B1 chain 2
# notes: as for B1
# B6: Fc-IL-2v heterodimer 114.46 (hIL-2v_Δ1-5_R38G_F42A_E62A_C125S) (Fc fusion)
# chain 1: B1 chain 1 with R281G, F285A, G288Y, A304E, E305A
# chain 2: B1 chain 2
# notes: as for B1
# B7: Fc-IL-2v heterodimer 107.46 (hIL-2v_Δ1-5_F42A_E62A_C125S) (Fc fusion)
# chain 1: B1 chain 1 with F285A, G288Y, A304E, E305A
# chain 2: B1 chain 2
# notes: as for B1
# B8: Fc-IL-2v heterodimer 113.46 (hIL-2v_Δ1-5_R38G_E62A_C125S) (Fc fusion)
# chain 1: B1 chain 1 with R281G, G288Y, A304E, E305A
# chain 2: B1 chain 2
# notes: as for B1
# Biological target: T1, trimeric murine IL-2 receptor (IL-2Rα, …)
# Experiment: cell-based or functional assay
row,"STAT5 activation of CTLL-2 cells, EC50 [nM]",Binder
1,0.4,B1
2,0.2,B2
3,7.7,B3
4,41.4,B4
5,0.03,B5
6,61.2,B6
7,25.5,B7
8,3.1,B8

# Biological target: T2, IL-2Rαβγ on KHYG-1 cells (human NK …)
# Experiment: cell-based or functional assay
row,"Proliferation of KHYG-1 NK cells, EC50 [nM]",Binder
1,0.191,B4
2,0.336,B6
3,0.235,B7
4,0.344,B8

# Biological target: T3, IL-2Rα (recombinant IL-2 receptor α, …)
# Experiment: SPR (Biacore), CM4 chip, biotinylated receptor on neutravidin
# Experimental: (§1) Fc-IL-2 variant binding data was collected on a Biacore platform using a CM4 chip. Neutravidin was immobilized using standard amine coupling methods and used to capture biotinylated receptors. The source, preparation and immobilization of biotinylated IL-2Rα and IL-2Rβγ heterodimer was as described in Example 4. Proleukin was used as a comparator. Fc-IL-2 variants and Proleukin were injected at various concentrations over these surfaces. Kinetic data obtained from these injections was used to extract kₒₙ and koff to calculate KD (KD=Koff/kₒₙ).
row,Kd [nM],Binder
1,56000,B1
2,59000,B2
3,> 60000,B3
4,39000,B5
5,> 60000,B6
6,> 60000,B7

# Biological target: T4, IL-2Rβγ heterodimer, custom biotinylated Fc fusion protein (human IL-2Rβ 27-240-Fc-FLAG / human IL-2Rγ … (human, site-specific biotinylation at the AviTag))
# T4 construct: Extracellular regions fused to IgG1 knob-in-hole Fc subunits with tags; also called IL-2 receptor βγ heterodimer; Fc-IL-2Rβγ
# Experiment: as above
# Experimental: as §1
row,Kd [nM],Binder
1,0.064,B1
2,0.056,B2
3,0.063,B3
4,0.062,B4
5,0.065,B5
6,0.076,B6
7,0.069,B7
8,0.072,B8
